The values that follow come from patent US7696168 (TUFTS MEDICAL CENTER, dated 2010).

One data set deals with T1, murine PAR4 (mouse, UniProt O88634 60-396).
T1 sequence (looked up): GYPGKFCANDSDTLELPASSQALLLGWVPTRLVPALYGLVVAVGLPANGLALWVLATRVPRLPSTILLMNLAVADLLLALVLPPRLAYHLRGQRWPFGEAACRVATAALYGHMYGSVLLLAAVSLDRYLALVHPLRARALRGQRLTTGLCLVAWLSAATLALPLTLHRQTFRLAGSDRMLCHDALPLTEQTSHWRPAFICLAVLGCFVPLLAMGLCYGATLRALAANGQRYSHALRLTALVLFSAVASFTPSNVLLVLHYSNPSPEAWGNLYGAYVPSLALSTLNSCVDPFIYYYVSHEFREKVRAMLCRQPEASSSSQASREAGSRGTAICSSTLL
As to the kind of experiment: cell-based or functional assay.

In another data set the target is T2, PAR1 S309P mutant (human, UniProt P25116 42-425).
T2 sequence (looked up): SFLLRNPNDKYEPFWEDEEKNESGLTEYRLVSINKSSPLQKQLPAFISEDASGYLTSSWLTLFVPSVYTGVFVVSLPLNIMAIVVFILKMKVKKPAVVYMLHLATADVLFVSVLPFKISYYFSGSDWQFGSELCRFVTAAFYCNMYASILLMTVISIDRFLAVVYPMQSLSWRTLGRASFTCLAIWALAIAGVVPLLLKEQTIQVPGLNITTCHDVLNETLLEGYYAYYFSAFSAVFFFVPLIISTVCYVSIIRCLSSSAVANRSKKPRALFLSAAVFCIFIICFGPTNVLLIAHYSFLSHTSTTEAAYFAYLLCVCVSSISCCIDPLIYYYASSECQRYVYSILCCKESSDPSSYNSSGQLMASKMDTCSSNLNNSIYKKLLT
The data set can be described thus: cell-based or functional assay.

Another data set has as its target PAR1 delta377 mutant (UniProt P25116).
Data set [1] concerns the target human glucagon-like peptide-1 receptor (GLP-1R) (human, UniProt P43220 24-463). The data set can be described thus: cell-based or functional assay.
Data set [2] concerns the target T3, human PAR1 (human, UniProt P25116 42-425).
T3 sequence (looked up): T2 sequence (looked up) with P268S
As to the kind of experiment: cell-based or functional assay.

For data set [3], the target named is T3, human PAR1. The data set can be described thus: cell-based or functional assay. The source holds these as a separate data set.
Data set [4] concerns the target T4, human PAR4 (human, UniProt Q96RI0 48-385).
T4 sequence (looked up): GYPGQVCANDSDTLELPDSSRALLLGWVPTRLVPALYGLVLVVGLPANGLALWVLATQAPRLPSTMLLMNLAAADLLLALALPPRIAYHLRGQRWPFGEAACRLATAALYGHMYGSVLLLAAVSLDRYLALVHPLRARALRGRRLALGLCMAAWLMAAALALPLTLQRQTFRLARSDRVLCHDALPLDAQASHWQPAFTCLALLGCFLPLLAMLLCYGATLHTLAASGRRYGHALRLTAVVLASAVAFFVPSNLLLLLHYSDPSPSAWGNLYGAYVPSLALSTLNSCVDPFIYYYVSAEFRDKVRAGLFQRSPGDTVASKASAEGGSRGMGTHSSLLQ
The data set can be described thus: cell-based or functional assay.

For data set [5], the target named is T4, human PAR4. The data set can be described thus: cell-based or functional assay. This is another data set of the same source.
Data set [6] concerns the target T5, human cholecystokinin A receptor (CCKA) (human, UniProt P32238 1-428).
T5 sequence (looked up): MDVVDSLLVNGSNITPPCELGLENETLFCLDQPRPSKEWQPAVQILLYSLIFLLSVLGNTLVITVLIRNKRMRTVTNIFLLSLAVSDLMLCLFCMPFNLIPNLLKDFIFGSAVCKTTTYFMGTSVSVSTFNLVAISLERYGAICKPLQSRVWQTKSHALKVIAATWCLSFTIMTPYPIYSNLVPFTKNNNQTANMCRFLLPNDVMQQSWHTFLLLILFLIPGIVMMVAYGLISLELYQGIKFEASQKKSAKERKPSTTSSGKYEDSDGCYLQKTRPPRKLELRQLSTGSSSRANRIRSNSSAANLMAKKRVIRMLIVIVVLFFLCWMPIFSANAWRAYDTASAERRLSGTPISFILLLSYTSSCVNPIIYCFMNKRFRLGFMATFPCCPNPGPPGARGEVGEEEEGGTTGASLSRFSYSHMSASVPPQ
As to the kind of experiment: cell-based or functional assay.

Where a chain is given by its changes, count along the chain named. The star is where a group is joined. Palmitoyl = CCCCCCCCCCCCCCCC(=O)* Some results are limits rather than exact numbers.

For the molecule thrombin (enzyme), the EC50, aggregation of murine platelets by thrombin in the data set with murine PAR4 was determined as 0.6 nM. Further, the loss of potency against wild type PAR1 (InsP) with PAR1 S309P mutant was 17 fold.

Take thrombin: in the data set with PAR1 delta377 mutant, the “reduction of efficacy against wild type PAR1 (PLC-beta, InsP)” value was “Efficacy is reduced by 2-3 fold for the two PAR1 agonists”.

B1: G1pal-15 pepducin (peptide)
peptide: Palmitoyl-ANLMSKTDIKCRLAF-NH2
SMILES: CCCCCCCCCCCCCCCC(=O)N[C@@H](C)C(=O)N[C@@H](CC(N)=O)C(=O)N[C@@H](CC(C)C)C(=O)N[C@@H](CCSC)C(=O)N[C@@H](CO)C(=O)N[C@@H](CCCCN)C(=O)N[C@H](C(=O)N[C@@H](CC(=O)O)C(=O)N[C@H](C(=O)N[C@@H](CCCCN)C(=O)N[C@@H](CS)C(=O)N[C@@H](CCCNC(=N)N)C(=O)N[C@@H](CC(C)C)C(=O)N[C@@H](C)C(=O)N[C@@H](Cc1ccccc1)C(N)=O)[C@@H](C)CC)[C@@H](C)O
Regarding B1, in data set [1], the “cAMP in Cos7 fibroblasts, fold activation at 1 µM pepducin” value is 1.7 fold.

B2: P1pal-19Q (Pal-RCLSSSAVANQSQQSQALF) (peptide)
peptide: Palmitoyl-RCLSSSAVANQSQQSQALF-NH2
SMILES: CCCCCCCCCCCCCCCC(=O)N[C@@H](CCCNC(=N)N)C(=O)N[C@@H](CS)C(=O)N[C@@H](CC(C)C)C(=O)N[C@@H](CO)C(=O)N[C@@H](CO)C(=O)N[C@@H](CO)C(=O)N[C@@H](C)C(=O)N[C@H](C(=O)N[C@@H](C)C(=O)N[C@@H](CC(N)=O)C(=O)N[C@@H](CCC(N)=O)C(=O)N[C@@H](CO)C(=O)N[C@@H](CCC(N)=O)C(=O)N[C@@H](CCC(N)=O)C(=O)N[C@@H](CO)C(=O)N[C@@H](CCC(N)=O)C(=O)N[C@@H](C)C(=O)N[C@@H](CC(C)C)C(=O)N[C@@H](Cc1ccccc1)C(N)=O)C(C)C
Turning to B2, in the data set with human PAR1 [2], the “Agonist EC50 (activating phase, InsP formation)” value (“Agonist EC50” for short) turned out to be 650 nM; the “Agonist Efficacy (% of full response to extracellular agonist)” value was determined as 46%; the “Agonist IC50 (inhibitory phase, InsP formation)” value stood at 30000 nM. Also, in the data set with human PAR1 [3], the “loss in efficacy, platelet aggregation or InsP in PAR1-Rat1 cells” value turned out to be 2 fold.

B3: P4pal-15F (Pal-HTLAASGRRYGHALF) (peptide)
peptide: Palmitoyl-HTLAASGRRYGHALF-NH2
SMILES: CCCCCCCCCCCCCCCC(=O)N[C@@H](Cc1c[nH]cn1)C(=O)N[C@H](C(=O)N[C@@H](CC(C)C)C(=O)N[C@@H](C)C(=O)N[C@@H](C)C(=O)N[C@@H](CO)C(=O)NCC(=O)N[C@@H](CCCNC(=N)N)C(=O)N[C@@H](CCCNC(=N)N)C(=O)N[C@@H](Cc1ccc(O)cc1)C(=O)NCC(=O)N[C@@H](Cc1c[nH]cn1)C(=O)N[C@@H](C)C(=O)N[C@@H](CC(C)C)C(=O)N[C@@H](Cc1ccccc1)C(N)=O)[C@@H](C)O
Consider B3, for which the “Antagonist IC50 (InsP formation, against 10 nM thrombin)” value with human PAR4 [4] is more than 2000 nM.

B4: P4pal-10 (Pal-SGRRYGHALR) (peptide)
peptide: Palmitoyl-SGRRYGHALR-NH2
SMILES: CCCCCCCCCCCCCCCC(=O)N[C@@H](CO)C(=O)NCC(=O)N[C@@H](CCCNC(=N)N)C(=O)N[C@@H](CCCNC(=N)N)C(=O)N[C@@H](Cc1ccc(O)cc1)C(=O)NCC(=O)N[C@@H](Cc1c[nH]cn1)C(=O)N[C@@H](C)C(=O)N[C@@H](CC(C)C)C(=O)N[C@@H](CCCNC(=N)N)C(N)=O
As for B4, in the data set with human PAR4 [5], the “IC50, inhibition of platelet aggregation to AYPGKF” value fell in the range of 500 to 1000 nM. Further, the “inhibition of the rate of murine platelet aggregation to 3 nM thrombin, 3 µM pepducin” value in the data set with murine PAR4 came to 7 fold.

B5: P4pal-15 (Pal-HTLAASGRRYGHALR) (peptide)
peptide: Palmitoyl-HTLAASGRRYGHALR-NH2
SMILES: CCCCCCCCCCCCCCCC(=O)N[C@@H](Cc1c[nH]cn1)C(=O)N[C@H](C(=O)N[C@@H](CC(C)C)C(=O)N[C@@H](C)C(=O)N[C@@H](C)C(=O)N[C@@H](CO)C(=O)NCC(=O)N[C@@H](CCCNC(=N)N)C(=O)N[C@@H](CCCNC(=N)N)C(=O)N[C@@H](Cc1ccc(O)cc1)C(=O)NCC(=O)N[C@@H](Cc1c[nH]cn1)C(=O)N[C@@H](C)C(=O)N[C@@H](CC(C)C)C(=O)N[C@@H](CCCNC(=N)N)C(N)=O)[C@@H](C)O
B5: the “Antagonist IC50 (InsP formation, against 10 nM thrombin)” value with human PAR4 [4] turned out to be 3000 nM. For the same molecule, the “IC50, inhibition of platelet aggregation to 200 micromolar AYPGKF” value in the data set with human PAR4 [5] was determined as 600 nM.

B6: P1pal-19 (Pal-RCLSSSAVANRSKKSRALF) (peptide)
peptide: Palmitoyl-RCLSSSAVANRSKKSRALF-NH2
SMILES: CCCCCCCCCCCCCCCC(=O)N[C@@H](CCCNC(=N)N)C(=O)N[C@@H](CS)C(=O)N[C@@H](CC(C)C)C(=O)N[C@@H](CO)C(=O)N[C@@H](CO)C(=O)N[C@@H](CO)C(=O)N[C@@H](C)C(=O)N[C@H](C(=O)N[C@@H](C)C(=O)N[C@@H](CC(N)=O)C(=O)N[C@@H](CCCNC(=N)N)C(=O)N[C@@H](CO)C(=O)N[C@@H](CCCCN)C(=O)N[C@@H](CCCCN)C(=O)N[C@@H](CO)C(=O)N[C@@H](CCCNC(=N)N)C(=O)N[C@@H](C)C(=O)N[C@@H](CC(C)C)C(=O)N[C@@H](Cc1ccccc1)C(N)=O)C(C)C
Regarding B6, in the data set with human PAR1 [2], the “Agonist EC50” value is 180 nM; the “Agonist Efficacy (% of full response to extracellular agonist)” value was found to be 90%; the “Agonist IC50 (inhibitory phase, InsP formation)” value was 6500 nM. Moreover, in the data set with PAR1 S309P mutant, the “loss in efficacy against wild type PAR1 (InsP)” value was found to be 4.3 fold and the “loss in potency against wild type PAR1 (InsP)” value is 13 fold. Also, the “platelet aggregation EC50” value with human PAR1 [3] amounted to 8000 nM.

B7: Apal-19F (Pal-RIRSNSSAANLMAKKRVIEF) (peptide)
peptide: Palmitoyl-RIRSNSSAANLMAKKRVIEF-NH2
SMILES: CCCCCCCCCCCCCCCC(=O)N[C@@H](CCCNC(=N)N)C(=O)N[C@H](C(=O)N[C@@H](CCCNC(=N)N)C(=O)N[C@@H](CO)C(=O)N[C@@H](CC(N)=O)C(=O)N[C@@H](CO)C(=O)N[C@@H](CO)C(=O)N[C@@H](C)C(=O)N[C@@H](C)C(=O)N[C@@H](CC(N)=O)C(=O)N[C@@H](CC(C)C)C(=O)N[C@@H](CCSC)C(=O)N[C@@H](C)C(=O)N[C@@H](CCCCN)C(=O)N[C@@H](CCCCN)C(=O)N[C@@H](CCCNC(=N)N)C(=O)N[C@H](C(=O)N[C@H](C(=O)N[C@@H](CCC(=O)O)C(=O)N[C@@H](Cc1ccccc1)C(N)=O)[C@@H](C)CC)C(C)C)[C@@H](C)CC
On to B7, for which, in [6], the “Agonist EC50” value is 200 nM; the “Agonist Efficacy (% of full response to 300 nM CCK-8)” value is less than 10%; the “Agonist IC50 (inhibitory phase, InsP formation)” value amounted to 2000 nM.
